# Measurements: patent publication US6030783, “Photo-potentiation of cisplatin chemotherapy” (Massachusetts Institute of Technology)
# Key:
# [1] = test system: HMG1; details: [Pt(en)Cl2]; photo-cross-linking efficiency about half that of cis-DDP probe
# [2] = biological target: T1, HMG domain B (of HMG1) (UniProt P63159 P63159:86-165); assay: EMSA; 10-40 equiv protein; about 50% shifted at 1 uM DNA with 1.5 equiv (Example 5); also photo-cross-links at 302 nm via Lys-6; 10 mM Tris pH 7.5, 10 mM MgCl2, 50 mM KCl; details: tags: expressed from pHB1 in E. coli BL21(DE3); label: 5'-32P
# T1 sequence (P63159 86-165, one chain of several): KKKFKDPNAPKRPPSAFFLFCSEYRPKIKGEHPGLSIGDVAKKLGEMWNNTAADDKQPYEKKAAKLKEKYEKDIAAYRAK
# Method: Reaction mixtures (10 µL total volume) were prepared containing 10 mM Tris-HCl, pH 7.5, 4% (v/v) glycerol, 10 mM MgCl2, 50 mM KCl, 1 mM EDTA and 0.05% (v/v) Nonidet P-40. HMG domain B [expressed and purified from pHB1/*Escherichia coli* BL21 (DE3) (Chow et al. (1995) *Biochemistry* 33: 15124–30)] was added, and the solution was incubated for 30 min on ice to allow protein-DNA binding. For binding of the 123- and 82-bp probes to HMG1, 0.2 µg of BSA/mL, 2 µg of competitor chicken erythrocyte DNA, and 300 ng of HMG1 were included in the reaction mixtures. To induce photo-cross-linking of the protein—DNA complexes, the reaction mixtures contained in open microcentrifuge tubes were placed on ice and irradiated from about for 1–2 h at a distance of 4 cm from a transilluminator (Ultra-Violet Products, TM-15) equipped with one of several different lamps, with primary spectral outputs of 254, 302, or 365 nm. The light intensity, 2.6–2.9 J m^-2 s^-1, was measured with a UVX radiometer (Ultra-Violet Products). Following irradiation, the reaction mixtures were combined with 5 µL of gel-loading solution [10 M urea, 1.5 mM EDTA, 0.05% (w/v) bromophenol blue and xylene cyanol]. The DNA was denatured by heating at 90° C. for 4 min and then analyzed by denaturing PAGE. The denaturing 8% polyacrylamide gel was run to determine photo-crosslinking of HMG1 to globally platinated 123-bp probes. […]
# [3] = biological target: T1, HMG domain B (of HMG1); assay: EMSA; 10-40 equiv protein; details: tags: expressed from pHB1 in E. coli BL21(DE3); label: 5'-32P
molecule,measurement,setting,value
[Pt(en)Cl2]-modified DNA,binding signal (fraction of cis-DDP probe),[1],0.5
"15Pt/15B cisplatin-modified 15-bp duplex (dsDNA, single cis-[Pt(NH3)2{d(GpG)-N7(1),-N7(2)}] intrastrand cross-link at GG) DNA 1: CCTCTCTGGTTCTTC DNA 2: GAAGAACCAGAGAGG",binding result,[2],binds
"CCTCTCTGGTTCTTC (ssDNA, single cis-[Pt(NH3)2{d(GpG)-N7(1),-N7(2)}] intrastrand cross-link at GG) [15Pt single strand]",binding result,[3],no binding
